Columns and labels:
Experiment in all cases: […]
Sec15 = target: T1, Sec15 (S. cerevisiae, UniProt P22224 1-910)
T1 sequence: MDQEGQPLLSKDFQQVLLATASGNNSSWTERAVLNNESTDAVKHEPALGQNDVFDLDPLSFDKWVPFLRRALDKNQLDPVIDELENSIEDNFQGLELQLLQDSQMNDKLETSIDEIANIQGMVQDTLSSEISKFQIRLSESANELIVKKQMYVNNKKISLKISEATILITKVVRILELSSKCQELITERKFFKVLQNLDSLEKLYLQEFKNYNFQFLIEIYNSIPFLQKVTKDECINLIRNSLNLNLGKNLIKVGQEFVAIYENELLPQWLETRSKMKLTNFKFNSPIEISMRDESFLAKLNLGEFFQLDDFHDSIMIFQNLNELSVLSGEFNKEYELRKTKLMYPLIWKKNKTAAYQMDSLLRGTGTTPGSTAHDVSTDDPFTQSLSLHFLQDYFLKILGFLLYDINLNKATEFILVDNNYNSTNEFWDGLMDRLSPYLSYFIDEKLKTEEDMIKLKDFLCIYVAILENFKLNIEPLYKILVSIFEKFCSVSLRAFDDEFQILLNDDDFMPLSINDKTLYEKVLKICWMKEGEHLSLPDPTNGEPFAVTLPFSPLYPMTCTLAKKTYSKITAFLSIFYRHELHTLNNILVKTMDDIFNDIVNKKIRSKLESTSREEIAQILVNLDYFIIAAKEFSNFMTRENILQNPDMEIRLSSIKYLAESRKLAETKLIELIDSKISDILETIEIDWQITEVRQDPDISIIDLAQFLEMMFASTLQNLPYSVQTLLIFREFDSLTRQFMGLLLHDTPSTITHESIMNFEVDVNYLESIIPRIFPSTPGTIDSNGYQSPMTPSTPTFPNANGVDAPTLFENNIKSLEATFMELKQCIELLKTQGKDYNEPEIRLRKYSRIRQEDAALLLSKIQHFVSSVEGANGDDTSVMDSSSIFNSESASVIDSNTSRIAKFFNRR

Sec8 = target: T2, Sec8 (S. cerevisiae, UniProt P32855 1-1065)
T2 sequence: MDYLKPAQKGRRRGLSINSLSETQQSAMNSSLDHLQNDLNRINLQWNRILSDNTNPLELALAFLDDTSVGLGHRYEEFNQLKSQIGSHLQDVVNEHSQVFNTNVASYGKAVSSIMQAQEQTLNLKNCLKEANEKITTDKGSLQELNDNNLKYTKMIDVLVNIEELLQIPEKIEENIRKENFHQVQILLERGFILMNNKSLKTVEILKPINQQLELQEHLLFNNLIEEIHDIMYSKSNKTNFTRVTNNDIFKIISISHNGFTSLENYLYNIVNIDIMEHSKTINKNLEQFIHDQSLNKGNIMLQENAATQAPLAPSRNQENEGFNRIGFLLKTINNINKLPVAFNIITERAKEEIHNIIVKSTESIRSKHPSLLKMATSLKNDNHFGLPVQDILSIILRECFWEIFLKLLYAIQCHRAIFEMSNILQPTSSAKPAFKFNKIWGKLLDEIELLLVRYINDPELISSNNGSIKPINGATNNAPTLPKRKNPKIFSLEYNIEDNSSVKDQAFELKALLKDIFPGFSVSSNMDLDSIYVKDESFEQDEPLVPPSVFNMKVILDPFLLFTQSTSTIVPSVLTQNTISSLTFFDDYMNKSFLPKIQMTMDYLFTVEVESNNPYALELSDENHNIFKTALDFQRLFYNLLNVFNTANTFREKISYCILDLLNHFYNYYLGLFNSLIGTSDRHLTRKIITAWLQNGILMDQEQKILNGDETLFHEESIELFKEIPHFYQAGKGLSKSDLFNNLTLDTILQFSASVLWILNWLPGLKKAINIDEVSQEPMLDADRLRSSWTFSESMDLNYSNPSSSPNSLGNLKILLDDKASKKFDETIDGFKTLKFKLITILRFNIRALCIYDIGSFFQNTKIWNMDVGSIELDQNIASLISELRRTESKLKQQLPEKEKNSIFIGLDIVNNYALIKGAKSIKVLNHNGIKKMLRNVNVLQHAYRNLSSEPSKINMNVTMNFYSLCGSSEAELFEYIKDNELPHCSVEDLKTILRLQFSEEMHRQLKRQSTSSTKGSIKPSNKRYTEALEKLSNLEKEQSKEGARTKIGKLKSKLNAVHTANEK

Sec5 = target: T3, Sec5 (S. cerevisiae, UniProt P89102 1-971)
T3 sequence: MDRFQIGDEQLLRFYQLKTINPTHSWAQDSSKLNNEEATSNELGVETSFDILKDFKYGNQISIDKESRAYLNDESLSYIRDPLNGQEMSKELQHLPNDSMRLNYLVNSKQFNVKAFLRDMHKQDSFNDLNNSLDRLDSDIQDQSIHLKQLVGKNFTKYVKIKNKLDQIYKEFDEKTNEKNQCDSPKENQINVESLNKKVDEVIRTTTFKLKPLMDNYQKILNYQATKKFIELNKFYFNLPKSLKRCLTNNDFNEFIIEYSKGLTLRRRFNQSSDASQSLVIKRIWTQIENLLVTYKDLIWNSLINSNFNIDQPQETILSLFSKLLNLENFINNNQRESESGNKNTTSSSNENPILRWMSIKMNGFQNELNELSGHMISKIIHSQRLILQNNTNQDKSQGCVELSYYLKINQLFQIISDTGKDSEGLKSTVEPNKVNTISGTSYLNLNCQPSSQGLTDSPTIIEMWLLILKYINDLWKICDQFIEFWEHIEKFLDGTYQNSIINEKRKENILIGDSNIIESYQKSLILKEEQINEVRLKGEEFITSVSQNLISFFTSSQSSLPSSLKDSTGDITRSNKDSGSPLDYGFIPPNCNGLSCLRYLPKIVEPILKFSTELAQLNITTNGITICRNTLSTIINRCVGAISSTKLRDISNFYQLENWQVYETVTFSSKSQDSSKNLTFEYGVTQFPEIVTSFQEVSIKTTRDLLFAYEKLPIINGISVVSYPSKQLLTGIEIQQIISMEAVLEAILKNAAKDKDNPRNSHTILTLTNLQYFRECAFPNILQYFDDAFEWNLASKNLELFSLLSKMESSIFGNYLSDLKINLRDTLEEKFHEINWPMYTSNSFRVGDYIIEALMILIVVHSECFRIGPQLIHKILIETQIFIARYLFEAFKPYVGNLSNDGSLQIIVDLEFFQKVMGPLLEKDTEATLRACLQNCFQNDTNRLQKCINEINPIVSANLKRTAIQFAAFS

Measured: binding result

B1: Exo84 (natural protein)
chain: MVEFSLKKARNNWKHVKKSASSPAKQKTPPSPAKPKQKTKKNPYSDLKDPATSYTLPTINARERSRVATSMQRRLSIHNTNYAPPTLDYSMPLPDMPNMIVPNDNVDSSHNNSSFTTENESVSSKGPSNSLNLSTADLSLNDSSYNKVPARSAMRNTVNPSGSNDPFNNSTSLRKMLANPHFNAKDFVHDKLGNASAITIDKFTSNLTDLSIQVQEEVKLNINKSYNEIMTVNNDLNVAMLELKRVRANINDLNEVLDQCTKIAEKRLQLQDQIDQERQGNFNNVESHSNSPALLPPLKAGQNGNLMRRDRSSVLILEKFWDTELDQLFKNVEGAQKFINSTKGRHILMNSANWMELNTTTGKPLQMVQIFILNDLVLIADKSRDKQNDFIVSQCYPLKDVTVTQEEFSTKRLLFKFSNSNSSLYECRDADECSRLLDVIRKAKDDLCDIFHVEEENSKRIRESFRYLQSTQQTPGRENNRSPNKNKRRSMGGSITPGRNVTGAMDQYLLQNLTLSMHSRPRSRDMSSTAQRLKFLDEGVEEIDIELARLRFESAVETLLDIESQLEDLSERISDEELMLLNLISLKIEQRREAISSKLSQSILSSNEIVHLKSGTENMIKLGLPEQALDLFLQNRSNFIQDLILQIGSVDNPTNYLTQLAVIRFQTIKKTVEDFQDIFKELGAKISSILVDWCSDEVDNHFKLIDKQLLNDEMLSPGSIKSSRKQIDGLKAVGLDFVYKLDEFIKKNSDKIR
binds: all assays above

From publication PMC5971111 (Nature structural & molecular biology, 2018)
